In series [1] the target is T1, IRDBP-1 C-terminal 1503 bp coding region (Trx-IRDBP-1) (Rattus norvegicus, UniProt Q5ZQU0 SEQ:548-1047). Nature of the series: EMSA; self-competed; supershifted by anti-IRDBP-1 cAb; printed probe sequence from Example 7. Particulars: tags: His6-thioredoxin fusion (pET-32a). The source says:
(§1) This band was competed by the IGFBP-3 IRE, but not by the unrelated NFκB oligonucleotide (FIG. 26, left panel). In addition, the gel-shift band was supershifted with the anti-IRDBP-1 cAb antibody, but not with preimmune serum (FIG. 26, right panel).

The target in series [2] is T1, IRDBP-1 C-terminal 1503 bp coding …. Nature of the series: competition; did not compete IGFBP-3 IRE band. The following applies: tags: His6-thioredoxin fusion (pET-32a).
Excerpt: as §1

T1 sequence (Q5ZQU0 904-1403): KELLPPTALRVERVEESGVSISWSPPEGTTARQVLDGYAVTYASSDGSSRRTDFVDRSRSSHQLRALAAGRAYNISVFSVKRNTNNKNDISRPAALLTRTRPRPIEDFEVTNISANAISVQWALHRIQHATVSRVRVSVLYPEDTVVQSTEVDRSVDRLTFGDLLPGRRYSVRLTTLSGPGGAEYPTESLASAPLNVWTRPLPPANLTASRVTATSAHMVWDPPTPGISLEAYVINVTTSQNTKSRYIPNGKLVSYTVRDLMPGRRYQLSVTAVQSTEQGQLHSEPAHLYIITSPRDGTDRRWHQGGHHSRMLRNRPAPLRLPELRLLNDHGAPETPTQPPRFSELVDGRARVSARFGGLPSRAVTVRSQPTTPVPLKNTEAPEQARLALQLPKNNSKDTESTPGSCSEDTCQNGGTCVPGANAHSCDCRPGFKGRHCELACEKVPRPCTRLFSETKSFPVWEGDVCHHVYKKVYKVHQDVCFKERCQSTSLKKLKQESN

B1: IGFBP-3 IRE oligo (Example 7) (dsDNA)
DNA 1: AATTCAAGGGTATCCAGGAAAGTCTCCTTCAAG
DNA 2: CTTGAAGGAGACTTTCCTGGATACCCTTGAATT
B1: in series [1], the binding result is given as “binds”.

B2: NFkB consensus (dsDNA)
DNA 1: GGGACTTTCCGGGACTTTCC
DNA 2: GGAAAGTCCCGGAAAGTCCC
Consider B2, for which, in series [2], the binding result was “no binding”.

Source of the values: patent US20030125296, “Insulin-responsive DNA binding protein-1 and methods to regulate insulin-responsive genes” (published 2003).
